In a protein production outcome set (Wang et al. 2014):

Experiment: label from the status in PepcDB records

Question: Which protein production does the source give for “SEVIRSQKRTVSNDVVSTPTLPLYLTAPHMEVRLEEFELFAIDRLRVLKGVSDGLARARNPNEMDDLVETLWKEHMRLSDVSEMINKDIISHFVLRLVYCRSDELKKWFLSMETAPFRHRFRLKKIEEQRAIVGEFGLPYKAVIGAELESLKERLGLVARSHGQISSDVENIYYKVPFEEVPDLVASRRVLLQKGFAFVAGTQLVSLVVTQFRSHLSKALILTNRKWTTTIREREKDRLTPIVEALSTSYLGPDYSQSNEYADISLKDIDQVSKSSFPLCMRHLFEKLREDHHLKHGGRMQLGLFLKGVGLKLDDALAFWREEFTKKVGSERFDKEYAYAIRHNYGKEGKRTDYTPYACSKIITSAPGAGDHHGCPYRHFSEDNLKAALSRMGLSSRGMEDVMDKVRNRHYQLACTLTFEAVYGTSCDTGINHPNQYFEESQKILKSKTPAAPV” here?
Answer: The protein production was “not failed”.

Question: For “MDAAHRHGVPVLGNIFLPPVAYGGQLQWTRDLVQKDATGHYPLAAQLVAVADAYGFDGWFVNAETSGGNTALATDMRGFLQELKALGTAKGQRVTWYDSMTATGSVSWQGALNSQNQAFFQAADSMFVDFRWSKSTLASSGTLAGQLGRSRYELWAGVDVESNGTSTSVNWDAIVPSASAHVVSLGFYRPEWTRNHLPANRTPGDFHAADDLFWTGASLDPAKPNTTASWRAPALRVADRSTVDSLPFATVFNTGHGLKWYEGGEVTSDTAWNHLGLQDRLPSRRWIVRTSGARPSVTFDFADAWRGGSSVLVAGTLGAPATLDLYETRLPVGSSETVVELTHRTDAGSAQIELAVATAEPSAPGQAPSYTYFPVSSGDGWGTSTVRLTGLSGTVRTLAVRLTGSGSPVRWRLGALAVKNAPAEPAAPTGLRVTDADGGSLRFSWQPAAGEVRHYELHRVLADGTRRFLGGTCQCAYYVAGLAAEQGESAARFELRAVGELYTESTATTTTHPW”, which protein production is on record?
Answer: The protein production was “failed”.

Question: Which protein production does the source give for “MPTINQLIRKERKKVVKKTKSPALVECPQRRGVCTRVYTTTPKKPNSALRKVAKVRLTSKFEVISYIPGEGHNLQEHSIVLVRGGRVKDLPGVKYHIVRGALDTAGVNKRTVSRSKYGTKKAKATDKKATDNKKK” here?
Answer: Its protein production is “failed”.

Question: Which protein production does the source give for “MNYFIVEVSEQEVKREKEKARELRRSQWWKNRIARGICHYCGEIFPPEELTMDHLVPVVRGGKSTRGNVVPACKECNNRKKYLLPVEWEEYLDSLESEPSDGEGLEHHHHHH” here?
Answer: Its protein production is “not failed”.

Question: With “MICLTSKMMAFLPYFLELKGKRVNIQALINDRVSQAIEAAGAPAGTPALVRQSAKAQFGDYQANGIMGAAKQLGTNPREFAQKVLDVLNLEGIASKTEIAGPGFINIFLSEEFLAAQAEAALADAR” as the sequence, how does the protein production read?
Answer: Its protein production is “failed”.

Question: For “HERVGNLNQPIEVTALYSFEGQQPGDLNFQAGDRITVISKTDSHFDWWEGKLRGQTGIFPANYVTMN”, which protein production is on record?
Answer: Its protein production is “not failed”.

Question: For “MEKQSPTALPGTPITDMPAAAETLLALMHAQAEVARLSEREQLFSSLLVSVNAVLWAFDWETQRMIYVSPAYEHIFGRSAGLLLADYSEWRDSIYPDDLNYAERSLSEVIEKGAVEDREYRIIRADGEVRWLSDKCFVSHRADASQRLIVVGIAEDITDKKHLEDELQRLATTDVLTQSSNRRHFFECAQREFELARLNGTPLAFLLLDIDDFKLVNDTYGHQEGDTVLQRIAESGRSALRRGDLFGRIGGEEFAAVFPGCAPEMAMQIAERLQREIQRQNFQANGSTFSITASQGLTNLGPEDQGLEALYGRADAAMYQAKRQGKNQIVLV”, which protein production is on record?
Answer: The protein production was “failed”.

Question: For “VDVENPILITSFPGIGLVGTIATAHYIMELKLESIGIVDSRLLPPVASLYEGVILPPVRVYQSADLGFVLIHSDVPIIPQAAIDMSKKIVQFAAEINARRVYSFAGVATFEDKKRVFAAATSKELLEEVKDHAEIFKTGTISGIAGSIMNECVAAKMPGIVLLGETLGFNPDPRAAASLIEAVNKIMNWNVSVEKLLKEAEMIEAQMQKLAEQARMQEERKEEFPMYG”, which protein production is on record?
Answer: The protein production was “failed”.

Question: For “MKTTTIFTAALLACLSAPAHAQDLRGSEAGAVMKRESDVRDYYELQQRLKESRESRPEEAVTDRTEPAPQPPADGGQRVFISHIVTDPSEILTEDDLRQVVAPLEGKEVSIRELLAMVDRINDLYRQKGYLTARAVLPPQKVERGTVRIRLVEGRVGRISVGGNRHTRDWFVTSRLHLREGDLVRLDTLENDLFRFNAINDVKLRAEVKPGTATGTTDLILRTQEPDNYRVVAFADNGGGRYIGQERLGLTLQDLSLLGIRDPLTVGGTVADGTLSAHASYSLPLTPVGTRLGVTYDYTSIWITSGPFESLDVDGTSSDLGLTLSQPFALSPALSVTTFAGFNWKKSTTDFGGDTIFENRTRTLTLGGDLLAIDGYGTWFTRHVLTQGFHDFGGDRSFFKYNGDLVRTFILPDDFSALVRASGQVSGNHLLPSSEQFQLGGIATVRGFYEGLLIGDDGYFVSAELTLPLFPADASVYDVRLSPLLRGAIFFDHGGAFPYKGSGESIDHNDFLSSAGFGFILNLAKYLTGRIDFGFPVGERDPDPGTVRVHFSLSSEIL”, which protein production is on record?
Answer: The protein production was “failed”.

Question: For “MFIAIHSQSFFSPEMDMVASRDRRPPPATIRREPFQLIRIKAAGLAAEGVNAMTSVFTRSAVACAIALAAAAISQAGAQGLKKYESGTKEFWTNPPPDWFLGDETEAQKGLAPPAGPPTGSSDAELAAMIKKIKLPPGFKIEVYASGVLSARQMAWGDNGTLFVGSFGVGSVYAITDKDGKKQVKTILKGLKMPTGLAFRDGALYVVDIDKLIRYDNAEANLDNLGSGKVVYDDMPSYVAHGWKYLAADKDGWFYVPFGPPFNIGIPPTSVSQIRRVDPKTGNAEIVALGVRNSVGGDVDPRSGKYWFTENARDWISDDMPSDKLNMISKLGEHFGYPYCHQGDMPDPKFAMGHKCSEFTPPVLNLGAHVAPLGMKFYTGDQFPAEYKNNIFIAEHGSWNRHKYQGGLIKRVIADPDGKNAKQEDFATGWIEGDQGYLGRPADIVLAKDGSMLVADDWAGAIYRISYSK”, which protein production is on record?
Answer: The protein production was “failed”.

Question: For “TYIDGSIKRKHLVQNNQPVTLYWLRFQKSIVDTNKQDLQQSLQINTGQEPKTQALAQQILKQSDADPARYVKNILDWYRQQDFIYTLSPEQLNGNRTDQFLFQTRNGFCEHYASSFVLLMRYAGIPARVVIGYQGGQLAPDAQSLEVRQLDAHAWAEVLIDDSWHRIDPTAAIAPARLEHGMQYYLQEDRRIWGSEQHLFWKQQNFHLIQSFRVWSDYLQYQWQSKVIGYNVDQQKSFFSKLGIRSVYSAIVIMLLSICGLVIVYGIYVAYKRRGQSSFIEYQISRFQRKMSPSMKKQKSETFKVW”, which protein production is on record?
Answer: The protein production was “failed”.

Question: With “MSTTTATLRDAIPDTRSLVTWAAVLNAEFILILGYVVNTAQPATDPFLLVFPFIWLNIAGLVALRVRPELPSRRRTIGSVVIALGYLLVLGYVGGVYGTGGQGTGLRLVTQAPPGFSPTVVFSGATLSVVLIPWKVAGYLALSYLVFVTAVDASGGAVGGIVGLFSCVSCVLPILASILGGFVGVGATLSQAALSQSYGLSTVVFVTSVGLLYGVHRFDVTLVGRLQALVDRP” as the sequence, how does the protein production read?
Answer: The protein production was “failed”.

Question: For “MCCPPMTSSSSLSHHASQSGQVRLCPGCELPIDAITVDQAHSAHCPRCGTLLYRGGSPSLSGDLALAVTCLLLFIPSHFFSYIDIRLFGVMIPATLPQGVFALWDEGYIALALLVLFCSSIAPLVLCLSVVSAHLALRFRYFQTLRYSLLFIHHLKVWVMIDVFLVSVAVSCFKLKDYSDIFIGPGLLGLVLLQLFTVLLLSRISTRRYWETWQAETEYDLPVKQVHCHNCHLSQPENGHCVRCQHKLYHRKPNSIERTWAYVLAATVAIFPANLIPISILITNGQRLEDTIFSGVASLVKNGMWGIALIIFVASIVVPVIKIIGLAYLLMAIKLKRHVHQRQRMMIYRGIKWIGKWSVMDLFVISIMLTLVDRGQILDFTPGYGAVAFGMVVVLTMLAAESLDPRLLWDEPDSTRTQQ”, which protein production is on record?
Answer: Its protein production is “failed”.

Question: Which protein production does the source give for “MDMTYYDHGTPAERWERARMFFDAKDYAAAARVLDGLVAQVPEQTGPRLLLARSYYHSAQLRRAEAELRVVVERDPVEHYARLMLGRTLERQGRQEEADAQLRIASALAGDFAEL” here?
Answer: Its protein production is “failed”.

Question: Which protein production does the source give for “MTTIAVLGNGRVGGNLATALTRAGHEVTVADRTPGAAADTARTAQIVINATPGAGSLDRLAALRDELRDKILVDVSNATNDGPDGLPADLIYPGSSLAEHLQEALPETRVVKTLNTMLFPVMTAPATLTQTPTAFLSGEDPQAKQTVRELLTDLGWHKEWIADLGGIQTARATEAAILFVPHVIGATGFTPFAISIARLEHHHHHH” here?
Answer: The protein production was “not failed”.

Question: For “MLTNPTYGLTLHAQGPVPAEVFPLPTPPRSSRVPASTNRGGPPPQRGGPRPSGRPPRPPVRRKKPRWAMRAVTALSVVVLASAGIGHAVLSSLDSDISRFDAFKDMKNRPRAGDGMNVLMVGTDGRDEITEEERRKYRLGGAPCHCTDTIMIVHISEDRERASVVSLPRDSYAETPGHTDRTTGEHHKGHPIKLNAAYAEGGPQLTIRTVENMTRVKIDHYLEVDFTSFMKTVDVLGGVRICTVQPLKDSYTGLDLPAGSHTLMGGQALQYVRARHLDGASDLSRMKRQQRFLAALIDRATSSGILLNPLKFRDVTRAVLGSVRADQGFGTDELLTLGRAMRNFSPSSSEFTTVPIGQMGYAVKGVGSTLKWDPAKSERLFDALREDEPLAAPKPKGPAPVRVPVDPKQIRVQVENGTRTSGLGKRVDDALAATGFRTTRAPRNAEDRAVGRTVVAYDPRWDQSAKSLAAALPGSELKPVKGQGATLKVIAGADFEKVAKVRPADPPQESGTVVRGDEVVCGKE”, which protein production is on record?
Answer: The protein production was “failed”.

Question: Which protein production does the source give for “KMFFKVIDTLSDNYEKEMLLLEAEAKEQYYQELEKSSREVRKIKHDLKNMLLAICGKAKKQNEISEEIYKIIKELDESDKKIYTSNVVINTIINHKISQAKKLEIKTDVNIKVSKAIHIDYKDAGILLGNILDNAIEACEKIKKKERWIKIDMLHNKNTLFIEVCNSKGKELTNISKSSKSDAHNHGIGISSIKAITKKYDGYVEFVDKGEEFEVVVNLYGMSF” here?
Answer: Its protein production is “failed”.

Question: Which protein production does the source give for “MSVIHPLQNLLTSRDGSLVFAIIKNCILSFKYQSPNHWEFAGKWSDDFDKIQESRNTTAKEQQGQSSENENENKKLKSNKGDSIKRTAAKVPSPGLGAPPIYSYIRNLRLTSDESRLIACADSDKSLLVFDVDKTSKNVLKLRKRFCFSKRPNAISIAEDDTTVIIADKFGDVYSIDINSIPEEKFTQEPILGHVSMLTDVHLIKDSDGHQFIITSDRDEHIKISHYPQCFIVDKWLFGHKHFVSSICCGKDYLLLSAGGDDKIFAWDWKTGKNLSTFDYNSLIKPYLNDQHLAPPRFQNENNDIIEFAVSKIIKSKNLPFVAFFVEATKCIIILEMSEKQKGDLALKQIITFPYNVISLSAHNDEFQVTLDNKESSGVQKNFAKFIEYNLNENSFVVNNEKSNEFDSAIIQSVQGDSNLVTKKEEIYPLYNVSSLRKHGEHYS” here?
Answer: The protein production was “failed”.

Question: For “MIRDYKSKLEFLAFYDELTGLPNKNSLIRWLNLKVSQMDCIDTYLIFLEVRDLEKLNVTYGYDLVDELIIHISKRIKDIAGEGNKAFKIGFDRFAIICKSENISDFIERMLSQLLLPYNVNGNLIRVNFNIGAAQIENSNEAAANLMRRCDLALIKAKEEGLNEYVIFKPSIELEHHHHHH”, which protein production is on record?
Answer: Its protein production is “failed”.

Question: For “MFTHLDENQQPRMVDISQKVAGDRRAVAQCIVQLPKAIKDYLTGQEIFLKKGPVIQTAIIAGTMAVKKTADLIPFCHTLPIHGCKFDINIVYQKRDYLEIFLQCAVNTNYKTGVEMEALCGVSVAALTIYDMCKSISSEIIIKNTKLIEKTGGKADVSQTPLYGLVLTGGKSRRMGKDKALINYQGQPHGQYIYDLLAKYCEQVFLSARPSQWQGTPLENLPTLVDRGESVGPMSGILTALQSYPGVNWLIIACDLAYINSTMVEKLIAQARQDLVATCYENADQGFPEALCGFYTPLALQLFTKAQNIGLHCPVKILQMADCQLIKPDNLFDIANINSPEDYGQINLEHHHHHH”, which protein production is on record?
Answer: Its protein production is “not failed”.
